± gives the standard deviation of the averaged measurements.
What was measured:
Saccharomyces cerevisiae [1] = assay: protein stability index of tFT-peptide fusion (C-terminal peptide) (PSI (0-1 scale)); higher = more stable (slower turnover)
Description: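 MPS profiling in S. cerevisiae of the tFT-X12 degron library: putative degron peptides plus stable controls, 12 aa, fused to the C-terminus of a sfGFP-mCherry timer. Cells are FACS-sorted into 8 mCherry/sfGFP bins and deep-sequenced. PSI runs from 0 (unstable) to 1 (stable). Backgrounds are wild type, das1Δ and doa10Δ at 30 °C, and wild type, das1Δ, cdc34-1 and cdc53-1 at 37 °C; 2-3 technical replicates each.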

Saccharomyces cerevisiae [2] = assay: as above; conditions: genetic background: wild type; temperature: 30 C
[3] = genetic background: cdc34-1, temperature: 37 C
[4] = genetic background: cdc53-1, temperature: 37 C
[5] = genetic background: das1 deletion, temperature: 30 C
[6] = genetic background: das1 deletion, temperature: 37 C
[7] = genetic background: doa10 deletion, temperature: 30 C
[8] = genetic background: wild type, temperature: 30 C
[9] = genetic background: wild type, temperature: 37 C
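Note: PSI is a weighted mean of sequencing reads over stability bins, variants kept only with over 10 reads, mCherry proximal and sfGFP distal, peptide attached via GGGS linker.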

Sequence	protein stability index (Saccharomyces cerevisiae [1]; [3])	protein stability index (Saccharomyces cerevisiae [1]; [4])	protein stability index (Saccharomyces cerevisiae [1]; [5])	protein stability index (Saccharomyces cerevisiae [1]; [6])	protein stability index (Saccharomyces cerevisiae [1]; [7])	protein stability index (Saccharomyces cerevisiae [1]; [8])	protein stability index (Saccharomyces cerevisiae [1]; [9])	protein stability index (Saccharomyces cerevisiae [2])
AVRLPFPLLVHL	0.205 ± 0.012	0.195 ± 0.0033	0.283 ± 0.031	0.386 ± 0.0046	0.427 ± 0.016	0.276 ± 0.053	0.337 ± 0.029	0.473 ± 0.028
AVVCSRLVLFCL	0.591 ± 0.042	0.609 ± 0.021	0.53 ± 0.016	0.6322 ± 0.0018	0.433 ± 0.018	0.446 ± 0.025	0.588 ± 0.021	0.512 ± 0.026
CALLLLSVRAGQ	0.5373 ± 0.00093	0.57 ± 0.02	0.432 ± 0.04	0.5912 ± 0.0029	0.415 ± 0.032	0.433 ± 0.024	0.565 ± 0.02	0.474 ± 0.019
CCSRFLMLRILV	0.197 ± 0.062	0.208 ± 0.015	0.287 ± 0.041	0.438 ± 0.026	0.118 ± 0.0037	0.1 ± 0.0099	0.126 ± 0.0093	0.146 ± 0.014
CFFFCSLFLSFL	0.439 ± 0.022	0.452 ± 0.011	0.436 ± 0.022	0.498 ± 0.01	0.4065 ± 0.001	0.35 ± 0.0098	0.431 ± 0.015	0.3662 ± 0.0032
CFFMVGFVFYFV	0.286 ± 0.031	0.412 ± 0.027	0.291 ± 0.039	0.505 ± 0.017	0.288 ± 0.014	0.294 ± 0.03	0.438 ± 0.0094	0.296 ± 0.014
CFFSLLLLIFSV	0.4101 ± 0.0016	0.412 ± 0.024	0.311 ± 0.041	0.4838 ± 0.0022	0.3486 ± 0.0032	0.31 ± 0.017	0.4476 ± 0.0032	0.377 ± 0.032
CFLLVSLGILCW	0.0312 ± 0.00089	0.0425 ± 0.02	0.109 ± 0.036	0.121 ± 0.003	0.0685 ± 0.035	0.106 ± 0.034	0.0931 ± 0.026	0.176 ± 0.094
CFPFYVSCLLVL	0.3061 ± 0.0023	0.311 ± 0.0064	0.281 ± 0.029	0.405 ± 0.019	0.25 ± 0.0066	0.256 ± 0.02	0.351 ± 0.0055	0.321 ± 0.027
CFTLSLCLAFFF	0.41 ± 0.026	0.455 ± 0.013	0.403 ± 0.03	0.433 ± 0.0072	0.324 ± 0.017	0.334 ± 0.026	0.4091 ± 0.0024	0.377 ± 0.014
CGLLSALSCLVF	0.507 ± 0.033	0.54 ± 0.011	0.442 ± 0.019	0.5533 ± 0.0036	0.4185 ± 0.0022	0.45 ± 0.017	0.552 ± 0.023	0.511 ± 0.02
CIVFVYCLFSCP	0.206 ± 0.0051	0.301 ± 0.038	0.213 ± 0.024	0.406 ± 0.041	0.209 ± 0.0024	0.207 ± 0.036	0.332 ± 0.027	0.32 ± 0.0041
CKRWGVVSYVFV	0.601 ± 0.069	0.6545 ± 0.0054	0.464 ± 0.025	0.655 ± 0.0067	0.418 ± 0.025	0.441 ± 0.024	0.61 ± 0.0099	0.493 ± 0.017
CLCFFLICFILF	0.252 ± 0.0092	0.255 ± 0.011	0.235 ± 0.019	0.391 ± 0.027	0.248 ± 0.0026	0.219 ± 0.032	0.333 ± 0.016	0.3151 ± 0.002
CLCFFMSILWWV	0.4741 ± 0.0038	0.498 ± 0.017	0.434 ± 0.035	0.5222 ± 0.0016	0.422 ± 0.015	0.374 ± 0.019	0.478 ± 0.0048	0.4269 ± 0.0011
